For experiment [1], the target named is T1, recombinant MT1-MMP (MMP14) catalytic domain (UniProt P50281 112-284, limits assumed).
T1 construct: domain: catalytic domain
Description: ELISA. Background: In an ELISA, binding on a coated surface is turned into a signal by an enzyme label.

Experiment [2] addresses T2, recombinant MT3-MMP (MMP16) catalytic domain (UniProt P51512 120-292, limits assumed).
T2 construct: domain: catalytic domain
Put plainly: ELISA.

For experiment [3], the target named is T3, recombinant MMP2 catalytic domain (UniProt P08253 110-452, limits assumed).
T3 construct: domain: catalytic domain
T3 sequence (P08253 110-452 limits assumed): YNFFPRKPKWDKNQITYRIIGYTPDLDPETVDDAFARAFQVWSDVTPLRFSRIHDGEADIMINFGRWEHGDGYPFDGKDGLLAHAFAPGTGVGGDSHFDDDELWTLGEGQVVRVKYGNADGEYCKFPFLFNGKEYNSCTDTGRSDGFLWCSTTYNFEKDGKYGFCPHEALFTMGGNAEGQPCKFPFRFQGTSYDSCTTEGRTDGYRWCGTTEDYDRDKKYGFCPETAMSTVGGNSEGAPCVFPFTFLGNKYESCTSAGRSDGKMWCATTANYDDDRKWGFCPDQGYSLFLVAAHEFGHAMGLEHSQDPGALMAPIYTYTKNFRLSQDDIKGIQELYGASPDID
Put plainly: Western blot. A general note: A western blot detects proteins with antibodies after separation by electrophoresis.

T2 sequence (P51512 120-292 limits assumed): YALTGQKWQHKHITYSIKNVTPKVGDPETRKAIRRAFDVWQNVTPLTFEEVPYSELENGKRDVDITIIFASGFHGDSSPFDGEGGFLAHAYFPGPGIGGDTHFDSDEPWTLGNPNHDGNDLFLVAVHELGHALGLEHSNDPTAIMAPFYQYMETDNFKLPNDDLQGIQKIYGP

B1: K4H7 scFv antibody (scFv)
scFv: QVQLVQSGGGLVKPGRSLRLSCTASGFTFGDYAMSWFRQAPGKGLEWVGFIRSKAYGGTTEYAASVKGRFTISRDDSKSIAYLQMNSLKTEDTAVYYCTRGSSGWFLNWFDPWGQGTLVTVSSLEGGGGSGGGGSGGGGSELETTLTQSPATLSLSPGERATLSCRASQSISSSYLAWYQHKPGQAPRLLIYGASRRATGIPDRFSGSGSGTDFSLTISRLEPEDFAVYYCLHYGSSKWTFGQGTKVEIKR
notes: Human scFv from the VTT naive phage display libraries; Purified scFv clones contain a myc tag (produced as soluble scFv-myc-his fusions); also called K4H7 clone; scFV clone K4H7
Consider B1, for which the results for the binding result in experiment [1], in experiment [2] and in experiment [3] were “no binding (tested: 3 µg of recombinant protein)”, “no binding (tested: 3 µg of recombinant protein)” and “no binding (tested: scFv 1 µg/ml)”, respectively.

The values are drawn from patent publication US20150232572A1 (UNIVERSIT DE LI GE, published 2015).
